Values of other authors, collected in article PMC5680199.

Target: human thrombin (human) (UniProt P00734+P00734)
Test: not stated (cited)
Details: phi29 DNA polymerase buffer adjusted to 10 mM K+ (optimum), ThT-HE 5 uM, 37 C, 2 h; pH not given in material

## 29-mer thrombin-binding aptamer (TBA)
  Kd: 0.5 nM
